Test [1] deals with HaCaT cells. Nature of the test: S. aureus USA300 invasion / internalization by HaCaT keratinocytes. In kind it is cell-based, human. On the set-up: key: ⇑: increased invasion and F-actin level; ⇓: decreased invasion and F-actin level. As to conditions: Triggering invasion of USA300 by keratinocytes (HaCaT). The method, then: (§1) To identify Lpli motifs that interact with the target protein Hsp90α the inventors synthesized peptides of various length covering the whole Lpli protein. All the peptides (> 40) were tested for their ability a) to interact with Hsp90α, and b) to trigger S. aureus internalization by keratinocyte-like HaCaT cells. Table 1: Selected Lpl1 derived peptides with their effect on USA300 invasion in HaCaT keratinocytes, interaction with Hsp90α and F-actin levels in HaCaT cells
The inventors compared the effect on host internalization of L13 and L15 with that of geldanamycin. Geldanamycin is a well-known cell permeable anti-neoplastic drug that competes with ATP for binding to Hsp90, thus inhibiting Hsp90 activity (Gorska et al., 2012). This in turn leads to inactivation, destabilization, and eventual degradation of Hsp90 client proteins, The geldanamycin analog 17AAG decreased F-actin formation upon Hsp90 inhibition (Taiyab & Rao Ch, 2011).

The subject of test [2] is HaCaT cells. Briefly: F-actin levels in HaCaT cells. In kind it is cell-based, human. On the set-up: key: ⇑: increased invasion and F-actin level; ⇓: decreased invasion and F-actin level. The method, then:
as §1

B1: LNC2: Lpl1 derived peptide, 64 aa, sequence shown as image only (peptide)
peptide: DEIVKELRSRYNISTEKSPILKMHIDGDLKGSSVGYRKLEIDFSKRENSKLSVIEFLSYKPAKK
B1: in the test on HaCaT cells [1], the Invasion entry is given as “⇑”. In the test with HaCaT cells [2], the F-actin levels entry is on record as “⇑”.

B2: TAKGHYFVTTFYRNGKLPDEKNYKIEMKNNKIILLDEVKDDKLKQKIENFKFFGQYANL KELRK (peptide, listed as Staphylococcus aureus)
chain: TAKGHYFVTTFYRNGKLPDEKNYKIEMKNNKIILLDEVKDDKLKQKIENFKFFGQYANLKELRK
notes: 64 aa domain of S.aureus Lpli protein
For the molecule B2, in the test with HaCaT cells [1], the Invasion result is recorded as “⇑”. Also, the F-actin levels result in the test on HaCaT cells [2] is given as “⇑”.
